Measured values reported in patent US11123413B2, “Carbapenemases for use with antibiotics for the protection of the intestinal microbiome” (priority 2015, dated 2021).
Entries after “also recorded” stand apart in the source; their conditions may differ.

B1: NDM: New Delhi metallo-β-lactamase NDM-1; NDM-68 = product of strain STY-NP1602-68 (STII Δ35, N-terminal GQQMETG) (protein)
chain: GQQMETGDQRFGDLVFRQLAPNVWQHTSYLDMPGFGAVASNGLIVRDGGRVLVVDTAWTDDQTAQILNWIKQEINLPVALAVVTHAHQDKMGGMDALHAAGIATYANALSNQLAPQEGMVAAQHSLTFAANGWVEPATAPNFGPLKVFYPGPGHTSDNITVGIDGTDIAFGGCLIKDSKAKSLGNLGDADTEHYAASARAFGAAFPKASMIVMSHSAPDSRAAITHTARMADKLR
B2: P2A: broad spectrum carbapenemase, class B metallo-enzyme requiring zinc, SEQ ID NO: 37; P2A-21 = product of strain SYT-PP0602-21 (protein)
chain: ETGTISISQLNKNVWVHTELGYFNGEAVPSNGLVLNTSKGLVLVDSSWDNKLTKELIEMVEKKFQKRVTDVIITHAHADRIGGITALKERGIKAHSTALTAELAKNSGYEEPLGDLQTITSLKFGNTKVETFYPGKGHTEDNIVVWLPQYQILAGGCLVKSAEAKDLGNVADAYVNEWSTSIENVLKRYGNINSVVPGHGEVGDKGLLLHTLDLLK

Key:
[1] = NDM in dilutions of mixed human chyme with and without protease inhibitors (SDS-PAGE, CENTA); format: in vitro ADME; settings: 30 minutes
Description: NDM activity was lost immediately upon incubation in the mixed human chyme (FIG. 24). To determine if the loss in activity was due to digestion by proteases present in the human chyme, purified NDM (100 ug/ml) was incubated for 30 minutes with dilutions of human mixed chyme ranging from 100% to 0% chyme in the absence or presence of a serine protease inhibitor cocktail (SigmaFAST protease inhibitors cocktail without EDTA (Sigma-Aldrich catalog number S8830). All incubations were performed in the presence of 100 μM ZnSO4 (final concentration). Samples removed at 30 minutes were transferred to lamelli sample buffer containing beta mercaptoethanol for analysis of protein degradation by gel electrophoreses and staining with coomassie blue. The remaining samples were snap frozen and used for evaluation of beta lactamase activity using a CENTA substrate (FIG. 25). […] In addition, most of the activity of NDM was retained at chyme dilutions of 3.13% or less (FIG. 25, panel A). In the presence of protease inhibitors, the majority of the NDM activity was retained at chyme dilutions of 50% or less.

[2] = CENTA chromogenic beta-lactamase biological activity assay (P3A standard curve); format: biochemical; settings: for stability of enzyme activity in cell lysates under differing storage conditions: fresh, frozen (−80° C.) or overnight at 4° C. lysate; for relative potency for CENTA degradation: midpoint of sigmoid curve, protein concentration vs OD405, P3A=1.0; for β-Lactamase: purified carbapenemase, P3A standard
Description: Biological activity of the carbapenemases, P2A, NDM, and KPC, present in the E. coli cell lysates were evaluated in a microtiter plate assay using CENTA as the chromogenic substrate (Bebrone et al. Antimicrob. Agents Chemother (2001) 45:1868-1871; van Berkel et al., J. Med. Chem. (2013) 56:6945-6953). Briefly, the assay was performed in a 50 mM NaH2PO4 buffer, pH 7.0 with supplementation of 100 uM ZnSO4, with CENTA (Calbiochem Cat #219475) at 50 ug/ml. The assays were run using purified P3A protein for the standard curve at protein concentrations of 0 ng/ml, 3 ng/ml, 6 ng/ml, 8 ng/ml, 10 ng/ml, 15 ng/ml, 20 ng/ml and 40 ng·ml. The plates were read at 405 nm after a 30 minute incubation using a microtiter plate reader. Cell lysates from the bacterial strains showing the highest protein expression levels by SDS-PAGE were evaluated for biological activity, which included P2A strains 5, 15, 20, 21, and 23, NDM strains 53, 58, 63, 68, and 69, and KPC strains 94, 96, 99, 100, 101, 102, 103, and 104 (Table 11). In addition, fresh lysate, frozen (−80° C.) lysate, or lysate stored overnight at 4° C. from strain P2A-21 were compared, and fresh and frozen (−80° C.) lysates from strain NDM-63 were compared to assess the stability of enzyme activity under differing storage conditions. All other lysates were kept frozen at −80° C. until assayed (Table 11).
Bacterial lysates were analyzed for protein expression by SDS-PAGE. Strong NDM expression was detected in all strains with good reproducibility between shake flasks (FIG. 4). Strong expression of P2A and KPC was also detected with good reproducibility between shake flasks (FIG. 5). In all cases, the vast majority of the protein was detected in the soluble fractions (FIG. 4 and FIG. 5). Biological activity was assessed in the cell lysates using the CENTA assay as described with P3A as the standard. […] The highest biological activity for NDM was from strain NDM-68.
Aliquots of bacteria were collected early in the fermentation cycle, 16 hours, for P2A and NDM, and 32 hours for KPC, prior to enzyme expression induction, and late in the cycle (48 hours) and subjected to SDS-PAGE (FIG. 6 and FIG. 7) and biological activity analyses (Table 15). […] Fermenters A, B, and C, reached high ODs. […] Bioreactor expression is achieved by changing of growth conditions, lowering phosphate conditions, and/or changing the promoter.
Frozen cell pellets retained from the fermenter studies, Fermenter A, P2A, Fermenter B, NDM, or from the shake flask studies, shake flask A, KPC, were lysed at 3×7000 psi in a Panda table top cell homogenizer. The lysate was spun at 45000 g for 1 hour, supernatants collected and pH adjusted to 5.5 with 1 M MES. The supernatants were spun at 45000 g for 30 minutes, to remove precipitated debris and filtered through a 0.45 um filter. The filtered supernatants were subjected to cation-exchange chromatography using an SP-sepharose column. NDM was subjected to an additional purification step using a hydrophobic column, phenyl sepharose. The fractions containing the peak levels of protein were concentrated and dialyzed against a 20 mM HEPES, pH 7.5, 150 mM NaCl buffer. The P2A and NDM samples were supplemented with 100 uM ZnSO4 in all steps of the purification process. Purified enzymes yields were calculated to be approximately 600 mg of protein per liter. Purified proteins were analyzed by SDS-PAGE (FIG. 8) and for biological activity (Table 16).
As different beta-lactamase enzymes display differential affinity and kinetics with diverse substrates, including antibiotics and the CENTA reagent, it was possible to determine the relative specific activities of P2A, NDM, and KPC compared to P3A for CENTA as a substrate now that purified proteins were available and therefore, protein concentrations were known. […]

E. coli (ATCC 25922) = experiment: Antibiotic inactivation screening assay via E. coli growth (96 well plate, OD625); format: cell-based; settings: for activity against cephalosporins and carbapenems / antibiotic degradation profile compared with P3A: 10, 100 or 1000 ng/ml enzyme; for inhibition by beta-lactamase inhibitors: SAM, TZP, CAZ/AVI combinations; for degradation of carbapenems: meropenem, imipenem, ertapenem, doripenem
Description: To mimic the activity of the carbapenemase enzymes, P2A, NDM, and KPC in the gut in the presence of high antibiotic concentrations, a novel screening assay was performed using a 96 well plate format. The assay was performed by mixing 10, 100 or 1000 μg/ml of the antibiotics, AMP: ampicillin, SAM: ampicillin/sulbactam, PIP: pipercillin, TZP: pipercillin/taxobactam, CRO: ceftriaxone, CTX: cefotaxime, CFZ: cefozolin, CXM: cefuroxime, CFP: cefoperazone, FEP: cefepime, CAZ: ceftazidime, MEM: meropenem, IPM: imipenem, ERT: ertapenem, DOR: doripenem, ATM: aztreonam, CDR: cefdinir; LEX: cephalexin; and CAZ/AVI: […]/avibactam with purified P2A, NDM, KPC, and P3A at concentrations of 10, 100, or 1000 ng/ml in each well of a 96 well microtiter plate. E. coli (ATCC 25922) was added immediately after the addition of the beta-lactamase enzymes, and the plates were incubated overnight. Bacterial growth was quantified by measuring the absorbance at 625 nm (OD625) in a Spectramax 384 Plus plate reader. The analysis was performed twice for each antibiotic. The beta-lactamase activity was determined as positive or negative based on the appearance of bacterial growth in the individual wells. An OD625 of 1.0 or greater indicated maximal bacterial growth, therefore complete antibiotic degradation and beta-lactamase activity. […] FIGS. 21A, 21B, and 21C display the comparison of the four beta-lactamases, P3A (SYN-004), P2A, NDM, and KPC with all 16 antibiotics at beta-lactamase concentrations of 10, 100, or 1000 ng/ml. […]

[3] = fermenter cell lysate, 16 hr, Bioreactor A or B (standard phosphate)
[4] = fermenter cell lysate, 48 hr, Bioreactor A, B or D (standard phosphate)

Molecule	chyme dilution at which the majority of the activity was retained ([1]; in the presence of protease inhibitors)	chyme dilution at which most of the activity was retained ([1]; without protease inhibitors)	chyme dilution at which intact protein could be detected ([1]; without protease inhibitors, SDS-PAGE)	Activity [2, 3]	Activity ([2]; fermenter cell lysate, 16 hr, Bioreactor C (extra zinc and extra phosphate))	Activity [2, 4]	Activity ([2]; fermenter cell lysate, 48 hr, Bioreactor C (extra zinc and extra phosphate))	stability of enzyme activity in cell lysates under differing storage conditions [2]	relative potency for CENTA degradation [2]	β-Lactamase ([2]; CENTA)	activity against cephalosporins and carbapenems (E. coli (ATCC 25922))	antibiotic degradation profile compared with P3A (E. coli (ATCC 25922))	inhibition by beta-lactamase inhibitors (E. coli (ATCC 25922))	degradation of carbapenems (E. coli (ATCC 25922))	Activity ([2]; bacterial cell lysate, shake flask culture, Flask A, CENTA, P3A as the standard)	Activity ([2]; bacterial cell lysate, shake flask culture, Flask B, CENTA, P3A as the standard)	activity against cefepime and ceftazidime compared to NDM (E. coli (ATCC 25922))
B1	≤ 50%	≤ 3.13%	≤ 6.25%	6.6 mg/L	5.8 mg/L	520.0 mg/L	14.1 mg/L	No difference in activity	0.71	1703.8 mg/L	efficiently degraded all tested cephalosporins and carbapenems	broader degradation profile than P3A	resistant to inhibition by sulbactam, tazobactum, and avibactam; also recorded: least affected by sulbactam	efficiently degraded meropenem, imipenem, ertapenem, and doripenem	–	–	–
B2	–	–	–	3.2 mg/L	–	59.7 mg/L	–	No difference in activity	0.12	317.7 mg/L	good activity against all carbapenems and most cephalosporins	broader degradation profile than P3A	resistant to inhibition by sulbactam, tazobactum, and avibactam	efficiently degraded meropenem, imipenem, ertapenem, and doripenem	19.6 mg/L	17.0 mg/L	activity was reduced against the cephalosporins, cefepime and ceftazidime
